How the values were obtained:
MRSA strain NRS382 = assay: Control of systemic MRSA infection in a murine model; type: in vivo, Staphylococcus aureus
[1] = test system: S. aureus strain NRS119 (SA LinR #12; linezolid resistant); assay: Plate lysis assay (FIG. 3); type: cell-based; settings: lawn on TSA plates, observed over days
Method: (§1) Purified proteins for each construct were diluted in sterile nickel column elution buffer, and 6 μL of lysostaphin (11 μg) or the constructs (0.2 nmoles or ˜11 μg for the repaired construct 2638A 1-180Mut-486) was spotted onto a freshly spread lawn of S. aureus strain NRS119 (SA LinR #12; linezolid resistant) growing cells that had air dried for 30 min on tryptic soy agar (TSA) plates. L=[…] Lysostaphin (Sigma); Spot 1=11 μg; all other constructs are 0.2 nmoles (˜11 μg for the repaired construct 2638A 1-180Mut-486) […]. The spotted plates were air dried for 10 min in a laminar flow hood and incubated overnight in a 37° C. environment. Scoring of the cleared spots occurred within 20 h of plating the cells.
The Plate Lysis assay results (FIG. 3) agree with the turbidity reduction assay. Each of the M23 peptidase dependent or SH3b-truncating constructs showing weak activity on S. aureus strain Newman strain. In addition to the Plate Lysis results in FIG. 3, we have also examined numerous strains with reduced but real lytic activity (Table 1). However, the plate lysis results with the 2638A endolysin constructs are extremely novel in appearance. Plate lysis results are routinely visualized as a discrete cleared spot on a lawn of bacteria after a single overnight of culture. […]

S. aureus Tanji 1 = assay: Plate lysis, susceptibility of strains to 2638A (Table 1); type: cell-based
Method: as §1
(§2) The Plate Lysis assay results (FIG. 3) agree with the turbidity reduction assay. Each of the M23 peptidase dependent or SH3b-truncating constructs showing weak activity on S. aureus strain Newman strain. In addition to the Plate Lysis results in FIG. 3, we have also examined numerous strains with reduced but real lytic activity (Table 1). However, the plate lysis results with the 2638A endolysin constructs are extremely novel in appearance. Plate lysis results are routinely visualized as a discrete cleared spot on a lawn of bacteria after a single overnight of culture. […] In contrast, the 2638A endolysin is unique in that sometimes this cleared zone requires multiple days to appear. […] Thus, there is also a likelihood that the enzyme might work preferentially on late log or stationary phase cells in the plate lysis assay, as the 3 day old culture is likely not growing as quickly as the freshly-plated overnight culture.

S. aureus 305 = assay: as above; type: cell-based
Method: as §1, §2

S. aureus Newman sm^r = assay: as above; type: cell-based
Method: as §1, §2

S. hyicus = assay: as above; type: cell-based
Method: as §1, §2

S. aureus ALC 1342 = assay: as above; type: cell-based
Method: as §1, §2

S. xylosus = assay: as above; type: cell-based
Method: as §1, §2

S. warneri = assay: as above; type: cell-based
Method: as §1, §2

S. aureus MN8 Δica = assay: as above; type: cell-based
Method: as §1, §2

S. aureus Reynolds (CP8) = assay: as above; type: cell-based
Method: as §1, §2

S. aureus NRS 385 (MRSA) = assay: as above; type: cell-based
Method: as §1, §2

[2] = test system: S. aureus Newman srtA::ermB; assay: as above; type: cell-based
Method: as §1, §2

S. aureus MN8 = assay: as above; type: cell-based
Method: as §1, §2

S. epidermidis = assay: as above; type: cell-based
Method: as §1, §2

S. aureus Tanji 33 = assay: as above; type: cell-based
Method: as §1, §2

S. aureus Tanji 48 = assay: as above; type: cell-based
Method: as §1, §2

S. aureus Tanji 49 = assay: as above; type: cell-based
Method: as §1, §2

S. aureus Tanji 19 = assay: as above; type: cell-based
Method: as §1, §2

S. aureus ANG 144 = assay: as above; type: cell-based
Method: as §1, §2

S. aureus NRS 382 (MRSA) = assay: as above; type: cell-based
Method: as §1, §2

S. aureus SA113 = assay: as above; type: cell-based
Method: as §1, §2

S. aureus Tanji 28 = assay: as above; type: cell-based
Method: as §1, §2

S. aureus Tanji 20 = assay: as above; type: cell-based
Method: as §1, §2

S. aureus Newman ΔtagO = assay: as above; type: cell-based
Method: as §1, §2

S. aureus Reynolds (CP5) = assay: as above; type: cell-based
Method: as §1, §2

S. aureus Newman ΔdltA = assay: as above; type: cell-based
Method: as §1, §2

S. aureus Newman Δica = assay: as above; type: cell-based
Method: as §1, §2

S. aureus Newman = assay: as above; type: cell-based
Method: as §1, §2

B1: 2638A Endolysin: 486 amino acid staphylococcal phage 2638A endolysin (SEQ ID NO:4), C-terminally 6×His-tagged; M23 peptidase, amidase, SH3b domains (protein)
chain: MLTAIDYLTKKGWKISSDPRTYDGYPKNYGYRNYHENGINYDEFCGGYHRAFDVYSNETNDVPAVTSGTVIEANDYGNFGGTFVIRDANDNDWIYGHLQRGSMRFVVGDKVNQGDIIGLQGNSNYYDNPMSVHLHLQLRPKDAKKDEKSQVCSGLAMEKYDITNLNAKQDKSKNGSVKELKHIYSNHIKGNKITAPKPSIQGVVIHNDYGSMTPSQYLPWLYARENNGTHVNGWASVYANRNEVLWYHPTDYVEWHCGNQWANANLIGFEVCESYPGRISDKLFLENEEATLKVAADVMKSYGLPVNRNTVRLHNEFFGTSCPHRSWDLHVGKGEPYTTTNINKMKDYFIKRIKHYYDGGKLEVSKAATIKQSDVKQEVKKQEAKQIVKATDWKQNKDGIWYKAEHASFTVTAPEGIITRYKGPWTGHPQAGVLQKGQTIKYDEVQKFDGHVWVSWETFEGETVYMPVRTWDAKTGKVGKLWGEIKLEHHHHHH
modifications: C-terminal His6 tag; Mutated Phage 2638a
notes: M23 peptidase, amidase, SH3b domains
% Survival (MRSA strain NRS382; 0 hours, Balb/c mice, I.P. 4×10^7 CFU, treated 30 min post infection: 2638A 200 μg/mouse I.P., Vancomycin 375 μg/mouse s.c., Oxacillin 1250 μg/mouse s.c.): 100% | % Survival (MRSA strain NRS382; 4 hours, same model and doses): 100% | % Survival (MRSA strain NRS382; 8 hours, same model and doses): 100% | % Survival (MRSA strain NRS382; 12 hours, same model and doses): 100% | % Survival (MRSA strain NRS382; 16 hours, same model and doses): 100% | % Survival (MRSA strain NRS382; 20 hours, same model and doses): 100% | % Survival (MRSA strain NRS382; 24 hours, same model and doses): 100% | % Survival (MRSA strain NRS382; 28 hours, same model and doses): 100% | % Survival (MRSA strain NRS382; 32 hours, same model and doses): 100% | % Survival (MRSA strain NRS382; 36 hours, same model and doses): 100% | % Survival (MRSA strain NRS382; 40 hours, same model and doses): 100% | % Survival (MRSA strain NRS382; 44 hours, same model and doses): 100% | % Survival (MRSA strain NRS382; 48 hours (end of the experiment), same model and doses): 100% | septicemia score at the end of the experiment (MRSA strain NRS382; 48 hours, score 0-5 per Table 4): 0 | Mean NRS382 Titer in the Blood (MRSA strain NRS382; Recovered 48 hr post infection from surviving mice, same doses): 0.8 ± 1.9 × 10^1 CFU/ml | appearance and persistence of the cleared zone in plate lysis [1]: very broad, ill-defined region of clearing that grows with time, up to four days | Susceptibility to lysis by 2638A, day 1 (S. aureus Tanji 1; day 1): − (− = >100 pmol) | Susceptibility to lysis by 2638A, day 3+ (S. aureus Tanji 1; day 3+): − (− = >100 pmol) | Susceptibility to lysis by 2638A, day 1 (S. aureus 305; day 1): − (− = >100 pmol) | Susceptibility to lysis by 2638A, day 3+ (S. aureus 305; day 3+): − (− = >100 pmol) | Susceptibility to lysis by 2638A, day 1 (S. aureus Newman sm^r; day 1): − (− = >100 pmol) | Susceptibility to lysis by 2638A, day 3+ (S. aureus Newman sm^r; day 3+): − (− = >100 pmol) | Susceptibility to lysis by 2638A, day 1 (S. hyicus; day 1): − (− = >100 pmol) | Susceptibility to lysis by 2638A, day 3+ (S. hyicus; day 3+): − (− = >100 pmol) | Susceptibility to lysis by 2638A, day 1 (S. aureus ALC 1342; day 1): − (− = >100 pmol) | Susceptibility to lysis by 2638A, day 3+ (S. aureus ALC 1342; day 3+): − (− = >100 pmol) | Susceptibility to lysis by 2638A, day 1 (S. xylosus; day 1): − (− = >100 pmol) | Susceptibility to lysis by 2638A, day 3+ (S. xylosus; day 3+): − (− = >100 pmol) | Susceptibility to lysis by 2638A, day 1 (S. warneri; day 1): − (− = >100 pmol) | Susceptibility to lysis by 2638A, day 3+ (S. warneri; day 3+): − (− = >100 pmol) | Susceptibility to lysis by 2638A, day 1 (S. aureus MN8 Δica; day 1): − (− = >100 pmol) | Susceptibility to lysis by 2638A, day 3+ (S. aureus MN8 Δica; day 3+): ++ (++ = 10 pmol) | Susceptibility to lysis by 2638A, day 1 (S. aureus Reynolds (CP8); day 1): − (− = >100 pmol) | Susceptibility to lysis by 2638A, day 3+ (S. aureus Reynolds (CP8); day 3+): − (− = >100 pmol) | Susceptibility to lysis by 2638A, day 1 (S. aureus NRS 385 (MRSA); day 1): − (− = >100 pmol) | Susceptibility to lysis by 2638A, day 3+ (S. aureus NRS 385 (MRSA); day 3+): − (− = >100 pmol) | Susceptibility to lysis by 2638A, day 1 ([2]; day 1): − (− = >100 pmol) | Susceptibility to lysis by 2638A, day 3+ ([2]; day 3+): − (− = >100 pmol) | Susceptibility to lysis by 2638A, day 1 (S. aureus MN8; day 1): − (− = >100 pmol) | Susceptibility to lysis by 2638A, day 3+ (S. aureus MN8; day 3+): ++ (++ = 10 pmol) | Susceptibility to lysis by 2638A, day 1 (S. epidermidis; day 1): − (− = >100 pmol) | Susceptibility to lysis by 2638A, day 3+ (S. epidermidis; day 3+): + (+ = 100 pmol) | Susceptibility to lysis by 2638A, day 1 (S. aureus Tanji 33; day 1): − (− = >100 pmol) | Susceptibility to lysis by 2638A, day 3+ (S. aureus Tanji 33; day 3+): + (+ = 100 pmol) | Susceptibility to lysis by 2638A, day 1 (S. aureus Tanji 48; day 1): − (− = >100 pmol) | Susceptibility to lysis by 2638A, day 3+ (S. aureus Tanji 48; day 3+): + (+ = 100 pmol) | Susceptibility to lysis by 2638A, day 1 (S. aureus Tanji 49): − (− = >100 pmol) | Susceptibility to lysis by 2638A, day 1 (S. aureus Tanji 19; day 1): − (− = >100 pmol) | Susceptibility to lysis by 2638A, day 3+ (S. aureus Tanji 19; day 3+): + (+ = 100 pmol) | Susceptibility to lysis by 2638A, day 1 (S. aureus ANG 144; day 1): − (− = >100 pmol) | Susceptibility to lysis by 2638A, day 3+ (S. aureus ANG 144; day 3+): − (− = >100 pmol) | Susceptibility to lysis by 2638A, day 1 (S. aureus NRS 382 (MRSA); day 1): − (− = >100 pmol) | Susceptibility to lysis by 2638A, day 3+ (S. aureus NRS 382 (MRSA); day 3+): − (− = >100 pmol) | Susceptibility to lysis by 2638A, day 1 (S. aureus SA113; day 1): + (+ = 100 pmol) | Susceptibility to lysis by 2638A, day 3+ (S. aureus SA113; day 3+): ++ (++ = 10 pmol) | Susceptibility to lysis by 2638A, day 1 (S. aureus Tanji 28; day 1): − (− = >100 pmol) | Susceptibility to lysis by 2638A, day 3+ (S. aureus Tanji 28; day 3+): − (− = >100 pmol) | Susceptibility to lysis by 2638A, day 1 (S. aureus Tanji 20; day 1): − (− = >100 pmol) | Susceptibility to lysis by 2638A, day 3+ (S. aureus Tanji 20; day 3+): + (+ = 100 pmol) | Susceptibility to lysis by 2638A, day 1 (S. aureus Newman ΔtagO; day 1): +++ (+++ = 1 pmol) | Susceptibility to lysis by 2638A, day 3+ (S. aureus Newman ΔtagO; day 3+): +++ (+++ = 1 pmol) | Susceptibility to lysis by 2638A, day 1 (S. aureus Reynolds (CP5); day 1): − (− = >100 pmol) | Susceptibility to lysis by 2638A, day 3+ (S. aureus Reynolds (CP5); day 3+): − (− = >100 pmol) | Susceptibility to lysis by 2638A, day 1 (S. aureus Newman ΔdltA; day 1): − (− = >100 pmol) | Susceptibility to lysis by 2638A, day 3+ (S. aureus Newman ΔdltA; day 3+): − (− = >100 pmol) | Susceptibility to lysis by 2638A, day 1 (S. aureus Newman Δica; day 1): − (− = >100 pmol) | Susceptibility to lysis by 2638A, day 3+ (S. aureus Newman Δica; day 3+): − (− = >100 pmol) | Susceptibility to lysis by 2638A, day 1 (S. aureus Newman; day 1): − (− = >100 pmol) | Susceptibility to lysis by 2638A, day 3+ (S. aureus Newman; day 3+): − (− = >100 pmol)

Reference: US9206411B2, “Staphylococcal Phage2638A endolysin amidase domain is lytic for Staphylococcus aureus” (priority 2012, dated 2015)
